No end group written: not given here.
Target: recombinant rat arrestin-2 (rat), P29066
Experiment: MST + fluorescence polarisation

Chain of recombinant rat arrestin-2 (rat), P29066 (P29066 whole entry): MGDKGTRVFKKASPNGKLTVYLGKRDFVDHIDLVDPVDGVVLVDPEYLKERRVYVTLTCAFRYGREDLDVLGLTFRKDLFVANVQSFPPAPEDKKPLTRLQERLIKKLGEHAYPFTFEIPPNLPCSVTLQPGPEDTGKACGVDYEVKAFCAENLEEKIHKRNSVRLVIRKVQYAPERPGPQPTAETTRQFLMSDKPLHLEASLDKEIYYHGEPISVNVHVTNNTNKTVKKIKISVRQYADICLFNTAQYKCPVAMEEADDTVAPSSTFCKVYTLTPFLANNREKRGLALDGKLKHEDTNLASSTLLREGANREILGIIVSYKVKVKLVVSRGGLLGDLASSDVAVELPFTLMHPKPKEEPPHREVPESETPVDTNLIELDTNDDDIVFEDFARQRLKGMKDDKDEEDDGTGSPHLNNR

GFEPFSQRKLEELKDESSRAWTEEEINE (domain or fragment, not fully specified) [phosphomimetic GHSR C-terminus, Q92847 339-366] showed a Kd of 200 µM.

Reference: doi:10.1101/2023.02.23.529712
